Test results reported in the supplement of paper PMC12636428.

Test system: Saccharomyces cerevisiae
Experiment: transcriptional activation domain activity (GFP:mCherry ratio, weighted mean of sorted bins, harmonized to initial dataset scale) (arbitrary fluorescence ratio units); higher = stronger transcriptional activation
Conditions: beta-estradiol 1 µM; induction time 4 h
Description: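 53-aa protein tiles (fungal proteins plus yeast TF control tiles) fused C-terminally to a DBD-estrogen-binding domain-mCherry synthetic TF, integrated in S. cerevisiae (URA3 locus) with a GFP reporter. Cells were induced with 1 uM beta-estradiol for 4 h at 30 C, FACS-sorted into 8 bins by GFP:mCherry ratio and barcodes sequenced. Activity is the read-weighted mean bin fluorescence (GFP:mCherry), averaged over barcodes (median 12); tiles under 50 reads were discarded. New active-learning values were harmonized by linear fit onto the scale of the initial (Hummel et al.) dataset. The assay saturates at low and high signal.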

FLAYVAKRIVWAIIRTIVYLRRDYLGYLSLGRGRSPSNVRGWLANKWYQFLLL
transcriptional activation domain activity: 50100

LFYFIFILFFFTLGDICFRFFYFMGPCFVLFKMVLLIFFSPFSFLHLSLSWVT
transcriptional activation domain activity: 43100

GAAEVDAAAPEGAETIEGAPAATEKQPRPPKKPRTPRPRRPAGEEPAGEPSKN
transcriptional activation domain activity: 29700

CNVLFYLELVRALVLLHRWDLNTWMLQYSTKTMPPIQPTPLDDFVKYITTFPG
transcriptional activation domain activity: 42800

PHHKWVVPTPFSSHAFHPVDGWLQSIPYHIFILVFPLHRVLYLVLFVLINFWT
transcriptional activation domain activity: 59200

VSMARGKKTFDRETIVIALERLLAVAPLAFQKVKILLALASCHFDFLSSASAY
transcriptional activation domain activity: 68200

MLGKGRIMEYLLTFVWGFGVHILIFYLSCTGVIMGFLLIYTYSTFCFCFHHYV
transcriptional activation domain activity: 67600

DTIYIFHALLVVFWVSLMQEPAFPYKLLIPILYITILLIPFTSQVFLPAVPVL
transcriptional activation domain activity: 49400

GVFCLALWVPATGFELVSFFALLVGAIFGVFWMVAGLKNLQSSLSISWLVIAL
transcriptional activation domain activity: 65200

WGLIIGLVGLNAALIYIGWRYYEVYYFLLVLLSSNTILQTFMCFCIMLHWFCT
transcriptional activation domain activity: 40400

MDPGLFLMVLLWLSLPLSIVPWNLPMNWCFQSCDTIRPYQARLSGFFLLLLFQ
transcriptional activation domain activity: 48600

MAKCIVTQTFLAASKTKTGYTIHQIRYTMTFWEIYENLLAIYLLIHPQWHLSF
transcriptional activation domain activity: 40200

VLICAHGQQQMGSGVFLGQDLLSRARMESIFCRSTVPVIVITTAYCSGLWAVP
transcriptional activation domain activity: 55900

AINVSFLHWIYIFHATGKHKYASQLARYLKNLHEVHPPELSQWLIEVFRKCHI
transcriptional activation domain activity: 61400

LLYHYPMCSVCVLCCVLFFSHLFSIFHVLSVLCCTFFWQCLSFFHYLIPLFLY
transcriptional activation domain activity: 62300

PVIFRKRPTYLMFISVCLMYIYLFAVVYIRPYKLTRNNHVAIISWITIVIFLF
transcriptional activation domain activity: 44400

LRLDGSYLYFADVREANVEQLRLNFTADDVIFKCLAWSIRHFMILRDNYFGSF
transcriptional activation domain activity: 46300

SISFIGHRMMFWFFACVGLACLFMAGALAVMCLHYLLMIFLFYLRCYPPYLGS
transcriptional activation domain activity: 31900

MATLDVFLRVYCFTLSFLLFLFLIIIFILAYSAFAVDFFFLFVYSSTIELCFI
transcriptional activation domain activity: 36200

HVDSYLRYLISHCKGRISSRGLVTARFLERRMRHLVWLLKVECVKWEYSPYTR
transcriptional activation domain activity: 79400

MEWMGGWLVLGGWIYLFCSVMFKLDRLVVFLEVFFFYLLLCVIVLVMGLVVML
transcriptional activation domain activity: 38800

LITIPINYTVYIFVLFPFYVLSGTLCVGYYFHSYSPEFWLLRAWDFFFCFIPM
transcriptional activation domain activity: 74300

SKTAGPSSNSPSQTGKDDKAAASSSTSAGGAPAATGRVIAGLAAGVAMGLAAA
transcriptional activation domain activity: 37700

DAKSGTSGGLFGSAAPASSTAPNSSGAATAGASSTTTTAPAGGLFGAKPAAAS
transcriptional activation domain activity: < 6570

AIENGGASDGEPKKRVRKRGGRKNKARRDSAAAAAAAAAAAAAGGQSSAALAP
transcriptional activation domain activity: < 6570

LDKKSGRLIKHSLCFTYKDLELLTRFFKEDHVIHPTIKAYVLAACTVLFHLLL
transcriptional activation domain activity: 62500

GLMGALGFRMLFGVPCLPFFALHWFLWLVNDYILYCVLVQTNRISSIHFLRAW
transcriptional activation domain activity: 41200

MELLSLLFFLFFFFFLYSLFGYASTLSFLPHHLFSFLTIYFISYFCDILFFEF
transcriptional activation domain activity: 44900

WSVFFFFFFFFCLNLSVLWLWFFRLFFFFFFLCAFDVLCLPLSCPPLFRPKAT
transcriptional activation domain activity: 48200

GSVGDELVCVVKRARPIAPSSASNAIKVRRGDVRRAVIVRTKKAVRRPDGRLI
transcriptional activation domain activity: 29900

ELYIYSTVRYSFSDYLIPSGYNVCAFLLSCLMFNGDLMVELVLVMRSWFKRIL
transcriptional activation domain activity: 66500

DKATMRRAFFERIVTERINIMGKMSISLIHSLIVDCMFLSTARSFLWLLWAYV
transcriptional activation domain activity: 56300

ATSVWLRVFFIAVSSIAVIPILNFWGLCKLWGFIFFFSCGNVYVGLLFTVVLF
transcriptional activation domain activity: 62300

MIIIIIIIMGNRFMMMSFLFAFFSLFFFLMKFFLSFSFFLFLSFLLIMFAISL
transcriptional activation domain activity: 62100

KAAAMKKVLAKPADKTKKTSSAKNDTKKAAAKAAATKPKARTTKTAKAAAATK
transcriptional activation domain activity: 7370

MCILSLFTAWAGLTLFTCIFSFFLLCIVNALLGQNGVGGLLTARRFNTILRVC
transcriptional activation domain activity: 54400

MIVMNQPNYIFDEFAIIISVYISSISNLAFYFGYDFLVLLFLQNLLEFIIMCY
transcriptional activation domain activity: 76800

CFILLHLVLSFFALSCLYCLVLLLLPLPLILLFLLSSPWKFVPVHLQRHFVVV
transcriptional activation domain activity: 68600

IQAEGLYQCRYRSYGIECIRYIFFFAMFGFLLKSEWYLSSAFFLGCLWHQLAF
transcriptional activation domain activity: 25300

VIYTSFFLYIYTPFIPFFFLFFFFLLLIPTFYIYMKRVLYYGLILWWFIQYSL
transcriptional activation domain activity: 51700

PDEVASEASQPAEPAAASRAESPAAASVYEEAREPQEVQEERVASPVVAATPA
transcriptional activation domain activity: 48300

SMHCGVVPCCFFVCLCLISFVYLEISIIFLGHSFFLSLSFFYIMNLFYTWWVS
transcriptional activation domain activity: 25200

LILILLIWRYCWYDGVIVNKIRAIGNDFCIWNPRMGEPLWTEYSHLVAKCLLF
transcriptional activation domain activity: 62700

EEEDGEEDYGNRLFVIASDKLQEEQLLIDVPPGNILSSNLLQVLKEILKTRKK
transcriptional activation domain activity: 26100

RGVEKLKVEVGCFFWILGEGMIADERLKKFMKDMAHARHVVSSPDVCPNIITY
transcriptional activation domain activity: 40800

RSSSKKKDASDDEDKHSRRKSSSRKKGSDEEDDKSRHSRSASASKKKDKKSYD
transcriptional activation domain activity: 14300

TPQCPPTPTPPPAPASKSRPPPHTPTSTRARNNPPPPSCACGGCTRATSGSRR
transcriptional activation domain activity: 33800

NRKTIGKQDPYCAARLGKEAKKTETDRRGGQTPRWDQEMRFTVHDSPDYYQLK
transcriptional activation domain activity: 21000

MADENNTAAAVGERNVPRQKQKRVFQTRARTGCQRCRARRRKCDEAKPRCARC
transcriptional activation domain activity: 35200

MLNLVILAFVIVFSTFLIGCVDYAAIPTHHALSEVMLPHCYARLSPSTVLFLL
transcriptional activation domain activity: 39700

LTKKALDRLLGGDLSSLVAATISVSDWILDVAISSHDRISCILVTAHNTVLQA
transcriptional activation domain activity: 35700

LASLTPLISRRTPATTHARPHSTTQIPHRHHSAEMAEEQKPVVVADAPAAPAV
transcriptional activation domain activity: 27800

VGRVTDKSSLVYDWPFDESIERNFSTTATAATGESKFDINDNCNRINSKSYSK
transcriptional activation domain activity: 45900

CSNIGAQKNQCEFVQLNCHGFNALYLELFYCSKLWKPIIIAILLSCLLMLFGA
transcriptional activation domain activity: 42200

EARTLVMHAQQGFSFHFGCQMSLSGMMLLSYILLLPPIFTGYQLLWLLWIVFP
transcriptional activation domain activity: 61400

DCSSILFSPLTTNTNNEFEGESDDFVHSPYLNSEADFSQILSSAPPVHHDPNE
transcriptional activation domain activity: 72800

MYICIYLLLGFVVWGISLICLVVIVILYILDNSFCSPYTSCSTSFPFLISLFY
transcriptional activation domain activity: 40300

MITTLFSFLLVFFPFFLFRFFLLLLLLNLFLLLLSHFLSLYHQPISPIPPRHH
transcriptional activation domain activity: 74200

AGRWQYATLFFSGVSGGATLALSLCVITHPSLLTRIVVICIFVTLISAFTILP
transcriptional activation domain activity: 27900

HARLKIIETATKAWSGALDADIKTKMAQSTAGFSGADVKVRAPHPLWDIHRPL
transcriptional activation domain activity: 37200

TSSPSAQTAASTTVVLVIGSDDKKVKEVGDELKTKLNVKGGGKGPRWSGKFTG
transcriptional activation domain activity: 24700
